The values that follow come from doi:10.1101/2025.11.29.691178 (bioRxiv, 2025).

Test [1] concerns the target T1, human biliverdin reductase B (BLVRB), recombinant, full length (human, UniProt P30043 1-206).
T1 sequence: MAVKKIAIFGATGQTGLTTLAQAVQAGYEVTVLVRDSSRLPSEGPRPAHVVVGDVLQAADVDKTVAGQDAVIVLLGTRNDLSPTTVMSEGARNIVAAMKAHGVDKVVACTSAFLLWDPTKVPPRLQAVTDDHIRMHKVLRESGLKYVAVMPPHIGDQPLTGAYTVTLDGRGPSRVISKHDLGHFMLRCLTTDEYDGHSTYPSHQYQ
As to the kind of experiment: NMR titration.

In test [2] the target is T2, Band 3 (SLC4A1), endogenous in human red blood cells (human (endogenous in RBCs), UniProt P02730 1-911).
T2 sequence: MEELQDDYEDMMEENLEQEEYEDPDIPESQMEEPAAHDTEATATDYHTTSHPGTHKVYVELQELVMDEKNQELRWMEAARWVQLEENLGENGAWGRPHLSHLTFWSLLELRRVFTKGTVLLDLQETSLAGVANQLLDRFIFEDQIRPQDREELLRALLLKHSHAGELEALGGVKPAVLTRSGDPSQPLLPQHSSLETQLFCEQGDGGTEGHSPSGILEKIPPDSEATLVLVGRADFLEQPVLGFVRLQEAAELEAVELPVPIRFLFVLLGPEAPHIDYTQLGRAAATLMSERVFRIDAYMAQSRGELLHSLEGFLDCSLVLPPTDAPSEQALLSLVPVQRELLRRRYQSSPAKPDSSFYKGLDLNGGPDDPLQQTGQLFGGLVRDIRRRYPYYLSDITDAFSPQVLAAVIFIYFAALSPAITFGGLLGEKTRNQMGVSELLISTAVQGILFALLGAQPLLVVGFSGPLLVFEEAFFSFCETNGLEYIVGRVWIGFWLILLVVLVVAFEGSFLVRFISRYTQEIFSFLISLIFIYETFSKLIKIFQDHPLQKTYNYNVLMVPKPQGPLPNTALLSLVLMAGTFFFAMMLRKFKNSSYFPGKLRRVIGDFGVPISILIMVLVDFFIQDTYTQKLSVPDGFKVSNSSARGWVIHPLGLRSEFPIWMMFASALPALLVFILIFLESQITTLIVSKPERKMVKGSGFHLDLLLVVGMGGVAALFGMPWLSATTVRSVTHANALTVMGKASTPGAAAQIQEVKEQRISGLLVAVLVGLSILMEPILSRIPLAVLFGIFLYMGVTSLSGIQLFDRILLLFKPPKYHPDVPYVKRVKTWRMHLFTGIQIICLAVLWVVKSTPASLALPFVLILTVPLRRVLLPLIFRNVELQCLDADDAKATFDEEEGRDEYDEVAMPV
As to the kind of experiment: cross-linking.

B1: Band 3 (SLC4A1) N-terminal residues 1-30, recombinant (domain or fragment)
chain: MEELQDDYEDMMEENLEQEEYEDPDIPESQ
Take B1: in test [1], the binding result is given as “binds”.

B2: Band 3 (SLC4A1) N-terminal residues 1-56, recombinant (domain or fragment)
chain: MEELQDDYEDMMEENLEQEEYEDPDIPESQMEEPAAHDTEATATDYHTTSHPGTHK
As for B2, the binding result in test [1] is on record as “binds”.

B3: hemoglobin (deoxyhemoglobin tetramer), endogenous in human red blood cells (complex)
chain 1: not shown
chain 2: not shown
For the molecule B3, the “fold change of cross-links, hypoxia against normoxia” value in test [2] came to 3 fold.
